From patent publication US6410329 come the findings set out here.

What all share (experiment): cell_activity
Data set [1] has as its system VirD1 (Agrobacterium tumefaciens). The settings on record: VirD1 alone.
Data set [2] deals with T1, VirD1-VirD2 translational fusion (p35SD1D2) (Agrobacterium tumefaciens) (UniProt P06668).
T1 sequence: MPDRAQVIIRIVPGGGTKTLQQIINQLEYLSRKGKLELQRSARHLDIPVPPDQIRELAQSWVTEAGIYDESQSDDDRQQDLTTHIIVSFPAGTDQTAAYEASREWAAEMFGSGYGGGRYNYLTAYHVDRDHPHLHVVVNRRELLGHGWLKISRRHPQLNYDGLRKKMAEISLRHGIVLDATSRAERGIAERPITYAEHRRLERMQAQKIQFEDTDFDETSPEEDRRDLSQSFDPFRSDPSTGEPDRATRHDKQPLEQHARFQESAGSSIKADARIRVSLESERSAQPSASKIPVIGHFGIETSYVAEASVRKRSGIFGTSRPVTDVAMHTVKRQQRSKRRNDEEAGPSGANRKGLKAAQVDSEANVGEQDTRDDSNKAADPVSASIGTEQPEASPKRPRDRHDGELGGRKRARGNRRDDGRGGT

Data set [3] concerns the target T2, VirD2-VirD1 translational fusion (p35SD2D1) (Agrobacterium tumefaciens) (UniProt P06668).
T2 sequence: T1 sequence

Setting [4] is: maize, pwBarRBLuc geminivirus vector.

As for “ATCCGGCAGGATATATACCGTTGTAATTCTGCA (double strand) [T-DNA right border duplex, pRB(+)Luc]”, the activity (% of control luciferase) in data set [1] (maize) turned out to be 105; in data set [1] (tobacco), 72; in data set [2] (maize, 1 ug + 4 ug) it was 2.4; in data set [2] (tobacco, 0.5 ug + 2 ug) it was 5.4; in data set [3] (maize, 1 ug + 4 ug), 2.6; in data set [3] (tobacco, 0.5 ug + 2 ug), 5.

As for “ATCCGGCAGGATATATACCGTTGTAATTCTGCA (double strand) [right border in WDV replicon pwi35SRBLuc]”, the activity (Luc/GUS ratio) in data set [1] (maize, target alone 15.0) is 8.1. Also, the activity (% of control luciferase) in data set [2] (setting [4]) was determined as 6; in data set [3] (setting [4]) it was 3.6.

On to “ATCCGGCAGGATATATACCGTTGTAATTCTGCA (double strand) [T-DNA right border reversed, pRB(-)Luc]”, for which, in data set [1] (tobacco), the activity (% of control luciferase) stood at 95.
